Columns and labels:
[1] = low pH, lyophilized, stored long term at 4° C.; cited from earlier work
mice = assay: Oral immunogenicity of tomato sNV110-2 powder versus gavaged iNV VLPs; format: in vivo, mouse
Procedure: FIGS. 23A-B show the immunologic response of mice to rNV-transgenic tomato. […] Five mice in each group ingested 1.2 g, 1.5 g or 2.3 g of tomato powder mixed with 0.6 volume of water, on days 1, 4, 17, and 20. One group was gavaged with 100 g iNV VLPs each. Nontransgenic tomato powder was fed to a negative control group. […] Standard errors were calculated on the log-transformed titers.
Three doses of tomato sNV110-2 powder (1.5 gm, 2.5 gm, or 5 gm) were provided on days 1, 4, 17, and 20. The actual doses ingested by each mouse were, on average, 1.2, 1.5 and 2.2 gm each feeding, containing 192, 240, and 352 μg rNV/dose, respectively, or 60, 75, and 1101 g VLPs/dose. Nontransgenic tomato TA234 powder (5 gram per mouse per feed) were given to one control group (−), and 100 μg purified iNV VLPs were orally administered by gavage to another control group (+). Serum and fecal antibodies were measured by ELISA, and GMTs were calculated for each group of mice. All pre-immune serum and fecal samples were negative for rNV-specific IgG and IgA, as were control group (−) (titers<20; the lowest dilution tested). […] No significant difference (p=0.05) in primary titers was observed among groups. […] Intestinal antibody responses reached their peaks at 27 dpi with IgA GMTs ranging from 10681 to 19127. […] In contrast, the control i-rNV gavage group had their maximum levels of IgG GMT=826 and IgA GMT=1748, which were 8.2 and 6.2 fold less than the group that ingested 1.2 gram of sNV110-2 powder (p<0.0183). Further, long-term serum antibody responses declined to baseline in 3 months (IgG GMT=58 at 87 dpi).

[2] = day 11, gavage of purified iNV VLPs (100 μg)

B1: iNV VLPs: purified insect cell (baculovirus) derived recombinant Norwalk virus virus-like particles, control reference antigen (protein)
chain: MMMASKDATSSVDGASGAGQLVPEVNASDPLAMDPVAGSSTAVATAGQVNPIDPWIINNFVQAPQGEFTISPNNTPGDVLFDLSLGPHLNPFLLHLSQMYNGWVGNMRVRIMLAGNAFTAGKIIVSCIPPGFGSHNLTIAQATLFPHVIADVRTLDPIEVPLEDVRNVLFHNNDRNQQTMRLVCMLYTPLRTGGGTGDSFVVAGRVMTCPSPDFNFLFLVPPTVEQKTRPFTLPNLPLSSLSNSRAPLPISSMGISPDNVQSVQFQNGRCTLDGRLVGTTPVSLSHVAKIRGTSNGTVINLTELDGTPFHPFEGPAPIGFPDLGGCDWHINMTQFGHSSQTQYDVDTTPDTFVPHLGSIQANGIGSGNYVGVLSWISPPSHPSGSQVDLWKIPNYGSSITEATHLAPSVYPPGFGEVLVFFMSKMPGPGAYNLPCLLPQEYISHLASEQAPTVGEAALLHYVDPDTGRNLGEFKAYPDGFLTCVPNGASSGPQQLPINGVFVFVSWVSRFYQLKPVGTASSARGRLGLRR
In the case of B1, the stability [1] is listed as “stable”, the “IgA GMT” value (mice; [2]) is listed as 62 and the “IgG GMT” value (mice; [2]) is listed as 18. The “mice with primary intestinal antibody responses” value (mice; [2]) was 2 of 5, the “mice with primary serum antibody responses” value (mice; [2]) was 1 of 5 and the “maximum IgA GMT” value (mice; i-rNV gavage control group) was 1748. The “maximum IgG GMT” value (mice; i-rNV gavage control group) was 826, the “long-term IgG GMT” value (mice; i-rNV gavage group, 87 dpi) was 58 and the “maximum IgA GMT, fold less than group ingesting 1.2 gram sNV110-2 powder” value (mice; p<0.0183) was 6.2 fold. The “maximum IgG GMT, fold less than group ingesting 1.2 gram sNV110-2 powder” value (mice; p<0.0183) was 8.2 fold.

Source: patent publication US7879338B2, “Vectors and methods for immunization against norovirus using transgenic plants” (Boyce Thompson Institute for Plant Research, priority 2003, dated 2011)
